Ka data for 1 substance are collected here from paper PMC3805550.

This assay deals with F-actin from chicken pectoral (skeletal) muscle (chicken) (UniProt P68139). The experiment in a line: co-sedimentation; 5 uM F-actin with 0.1-6 uM AS-Cdc8p, 20 mM MOPS pH 7.0, 150 mM NaCl, 2 mM MgCl2, 20 C, 60,000 rpm 30 min; pellets and supernatants on SDS-PAGE, densitometry; Hill equation fit, apparent constant (Kapp).

As for “AS-Cdc8p wildtype (Ala-Ser-Cdc8p, S. pombe tropomyosin with AlaSer at the N terminus) (natural protein)”, the Ka turned out to be 6.3e+06 M⁻¹.
